{
  "source": "patent US20110189776",
  "about": "“PROKARYOTIC RNAi-LIKE SYSTEM AND METHODS OF USE” (University of Georgia Research Foundation, Inc., published 2011)",
  "target": "native psiRNP containing Cmr1-1, Cmr1-2, Cmr2, Cmr3, Cmr4, Cmr5, Cmr6 (Pyrococcus furiosus, UniProt Q8U1S5;Q8U3V3;Q8U1S6;Q8U1S7;Q8U1S9;Q8U1T0;Q8U1T1 …)",
  "experiment": "EMSA; native gel Northern with psiRNA 7.01 probe; mobility shift lost on deproteinization",
  "conditions": "tags: S-sepharose peak fraction, endogenous psiRNAs; other co-purifying proteins present",
  "data": [
    {"binder": "AUUGAAAGUUGUAGUAUGCGGUCCUUGCGGCUGAGAGCACUUCAG (ssRNA)", "note": "[psiRNA 7.01, 45 nt]", "values": [
      {"measurement": "binding result", "result": "binds"}
    ]}
  ]
}
